Bridges are numbered along the chain shown (N, C = ends). [ ]: non-standard residue; d: D form. NMeF = CN[C@@H](Cc1ccccc1)C(=O)O; pGlu = O=C1CC[C@@H](C(=O)O)N1; d(hCys) = N[C@H](CCS)C(=O)O; dNle = CCCC[C@@H](N)C(=O)O; Nle = CCCC[C@H](N)C(=O)O; dAbu = CC[C@@H](N)C(=O)O
T1: human APJ receptor (hAPJ) (human, UniProt P35414 1-380)
T1 sequence (looked up): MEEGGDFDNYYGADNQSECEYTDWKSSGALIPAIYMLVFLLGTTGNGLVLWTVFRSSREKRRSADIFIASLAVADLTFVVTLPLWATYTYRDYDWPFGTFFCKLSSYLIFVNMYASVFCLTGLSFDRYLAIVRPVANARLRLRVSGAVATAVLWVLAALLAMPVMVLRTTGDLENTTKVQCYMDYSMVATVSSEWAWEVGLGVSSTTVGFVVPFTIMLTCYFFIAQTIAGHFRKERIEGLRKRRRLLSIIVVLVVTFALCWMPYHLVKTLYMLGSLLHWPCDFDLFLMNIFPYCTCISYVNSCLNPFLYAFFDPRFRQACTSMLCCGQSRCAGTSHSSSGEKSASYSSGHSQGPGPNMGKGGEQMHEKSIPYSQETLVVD

B1: pE-R-C*-R-L-S-C*-F-G-P-(D-Nle)-a-f-OH (peptide)
peptide: [pGlu]RCRLSCFGP[dNle][dA][dF]-OH
modifications: disulfide 3-7
SMILES: CCCC[C@@H](NC(=O)[C@@H]1CCCN1C(=O)CNC(=O)[C@H](Cc1ccccc1)NC(=O)[C@@H]1CSSC[C@H](NC(=O)[C@H](CCCNC(=N)N)NC(=O)[C@@H]2CCC(=O)N2)C(=O)N[C@@H](CCCNC(=N)N)C(=O)N[C@@H](CC(C)C)C(=O)N[C@@H](CO)C(=O)N1)C(=O)N[C@H](C)C(=O)N[C@H](Cc1ccccc1)C(=O)O
B2: pE-R-C*-R-L-S-C*-K-a-P-(D-Nle)-a-f-OH (peptide)
peptide: [pGlu]RCRLSCK[dA]P[dNle][dA][dF]-OH
modifications: disulfide 3-7
SMILES: CCCC[C@@H](NC(=O)[C@@H]1CCCN1C(=O)[C@@H](C)NC(=O)[C@H](CCCCN)NC(=O)[C@@H]1CSSC[C@H](NC(=O)[C@H](CCCNC(=N)N)NC(=O)[C@@H]2CCC(=O)N2)C(=O)N[C@@H](CCCNC(=N)N)C(=O)N[C@@H](CC(C)C)C(=O)N[C@@H](CO)C(=O)N1)C(=O)N[C@H](C)C(=O)N[C@H](Cc1ccccc1)C(=O)O
B3: pE-R-C*-R-L-S-C*-K-A-P-(D-Nle)-a-f-OH (peptide)
peptide: [pGlu]RCRLSCKAP[dNle][dA][dF]-OH
modifications: disulfide 3-7
SMILES: CCCC[C@@H](NC(=O)[C@@H]1CCCN1C(=O)[C@H](C)NC(=O)[C@H](CCCCN)NC(=O)[C@@H]1CSSC[C@H](NC(=O)[C@H](CCCNC(=N)N)NC(=O)[C@@H]2CCC(=O)N2)C(=O)N[C@@H](CCCNC(=N)N)C(=O)N[C@@H](CC(C)C)C(=O)N[C@@H](CO)C(=O)N1)C(=O)N[C@H](C)C(=O)N[C@H](Cc1ccccc1)C(=O)O
B4: pE-R-C*-R-L-S-C*-K-G-P-(D-Nle)-NH2 (peptide)
peptide: [pGlu]RCRLSCKGP[dNle]-NH2
modifications: disulfide 3-7
SMILES: CCCC[C@@H](NC(=O)[C@@H]1CCCN1C(=O)CNC(=O)[C@H](CCCCN)NC(=O)[C@@H]1CSSC[C@H](NC(=O)[C@H](CCCNC(=N)N)NC(=O)[C@@H]2CCC(=O)N2)C(=O)N[C@@H](CCCNC(=N)N)C(=O)N[C@@H](CC(C)C)C(=O)N[C@@H](CO)C(=O)N1)C(N)=O
B5: pE-R-C*-R-L-S-(D-hC)*-K-G-P-f-a-f-OH (peptide)
peptide: [pGlu]RCRLS[d(hCys)]KGP[dF][dA][dF]-OH
modifications: disulfide 3-7
SMILES: CC(C)C[C@@H]1NC(=O)[C@H](CCCNC(=N)N)NC(=O)[C@@H](NC(=O)[C@H](CCCNC(=N)N)NC(=O)[C@@H]2CCC(=O)N2)CSSCC[C@H](C(=O)N[C@@H](CCCCN)C(=O)NCC(=O)N2CCC[C@H]2C(=O)N[C@H](Cc2ccccc2)C(=O)N[C@H](C)C(=O)N[C@H](Cc2ccccc2)C(=O)O)NC(=O)[C@H](CO)NC1=O
B6: pE-R-c*-R-L-S-C*-K-G-P-(D-Nle)-(D-abu)-f-OH (peptide)
peptide: [pGlu]R[dC]RLSCKGP[dNle][dAbu][dF]-OH
modifications: disulfide 3-7
SMILES: CCCC[C@@H](NC(=O)[C@@H]1CCCN1C(=O)CNC(=O)[C@H](CCCCN)NC(=O)[C@@H]1CSSC[C@@H](NC(=O)[C@H](CCCNC(=N)N)NC(=O)[C@@H]2CCC(=O)N2)C(=O)N[C@@H](CCCNC(=N)N)C(=O)N[C@@H](CC(C)C)C(=O)N[C@@H](CO)C(=O)N1)C(=O)N[C@H](CC)C(=O)N[C@H](Cc1ccccc1)C(=O)O
B7: pE-R-P-C*-L-S-C*-K-G-P-Nle-P-F-OH (peptide)
peptide: ERPCLSCKGPLPF
modifications: pE at 1; disulfide C4-C7; Nle at 11; free C-terminal acid
B8: pE-R-P-C*-L-S-C*-K-G-P-Nle-P-(N-Me)F-OH (peptide)
peptide: ERPCLSCKGPLPF
modifications: pE at 1; disulfide C4-C7; Nle at 11; (N-Me)F at 13; free C-terminal acid
B9: Ac-C*-R-P-R-L-S-C*-K-G-P-Nle-P-(N-Me)F-OH (peptide)
peptide: Ac-CRPRLSCKGP[Nle]P[NMeF]-OH
modifications: disulfide 1-7
B10: pE-R-P-C*-L-S-C*-K-G-P-Nle-P-NH(Phenethyl) (peptide)
peptide: ERPCLSCKGPLP
modifications: pE at 1; disulfide C4-C7; Nle at 11; C-terminal NH(Phenethyl) amide on P12
B11: pE-R-P-C*-L-S-C*-K-G-P-Nle-NH(Phenethyl) (peptide)
peptide: ERPCLSCKGPL
modifications: pE at 1; disulfide C4-C7; Nle at 11 with C-terminal NH(Phenethyl) amide

Target: T1, human APJ receptor (hAPJ)
Assay: cell-based or functional assay

In order of rising “hAPJ Ca^2+ Flux EC50” value:
1. B10  0.4 nM
2. B11  0.5 nM
3. B7  3.1 nM
4. B1  3.3 nM
5. B8  4.2 nM
6. B9  64.5 nM
7. B2  72.2 nM
8. B3  85.8 nM
9. B6  86.5 nM
10. B4  227 nM
11. B5  2290 nM

Source: patent US20160108091A1 (Novartis, published 2016)
